From PMC7930385, “A Novel SOD1 Intermediate Oligomer, Role of Free Thiols and Disulfide Exchange” (Frontiers in Neuroscience, 2020)

Molecular target: the molecule itself
Experiment: thioflavin-T fluorescence of fibrillation + electron microscopy; 40 μM apo protein in 10 mM potassium phosphate, pH 7.0, with TCEP (0-10 mM) and 40 μM thioflavin-T, 37°C, agitated at 300 rpm in 96-well plates with a Teflon ball; fibrils seen by negative-stain EM

B1: apo C6A/C111S human SOD1 (apo AS-SOD1) (enzyme)
chain: not shown
modifications: no N-terminal acetylation (expression in E. coli); metal-free (apo); C57-C146 disulfide intact at the start and reduced by TCEP in the reaction
notes: Cu/Zn superoxide dismutase 1 (SOD1), human, 153-residue subunit, both free cysteines removed (C6A, C111S); numbers count on: the mature protein (numbered from A1); The printed mass of AS S-S (15756.43 Da) appears to fit the 153-residue chain without Met and without acetyl; also called AS mutant; apo AS^S–S; source: E. coli, purified, demetallated by dialysis (apo)
B1: binds.
